# Experimental data taken from the FLAb antibody collection.
# Several values for one entry are separate records, joined by “and”; a condition that tells them apart may be missing. Equal entries are not always repeated.
# Assay: patients with anti-drug antibodies; higher = more immunogenic
row,Protein,patients with anti-drug antibodies
1,unnamed (protein) chain 1: EVQLVQSGAEVKKPGESLKISCKGSGYIFTNYWIAWVRQMPGKGLESMGIIYPGDSDIRYSPSFQGQVTISADKSITTAYLQWSSLKASDTAMYYCARHDIEGFDYWGRGTLVTVSS chain 2: EIVLTQSPGTLSLSPGERATLSCRASQSVSSSFFAWYQQKPGQAPRLLIYGASSRATGIPDRLSGSGSGTDFTLTITRLEPEDFAVYYCQQYDSSAITFGQGTRLEIK,3.3%
2,unnamed (protein) chain 1: QVQLVQSGAEVKKPGASVKVSCKASGFNIKDTYIHWVRQAPGQRLEWMGRIDPANGYTKYDPKFQGRVTITADTSASTAYMELSSLRSEDTAVYYCAREGYYGNYGVYAMDYWGQGTLVTVSS chain 2: DIQMTQSPSSLSASVGDRVTITCKTSQDINKYMAWYQQTPGKAPRLLIHYTSALQPGIPSRFSGSGSGRDYTFTISSLQPEDIATYYCLQYDNLWTFGQGTKVEIK,9%
3,unnamed (protein) chain 1: QVQLVQSGAEVKKPGASVKISCKASGYSFTAYYIHWVKQAPGQGLEWIGYISNYNRATNYNQKFKGRVTFTTDTSTSTAYMELRSLRSDDTAVYYCARDYDYDVGMDYWGQGTLVTVSS chain 2: DIVMTQSPDSLAVSLGERATISCRASESVDNYGISFMKWFQQKPGQPPKLLIYAASNQGSGVPDRFSGSGSGTDFTLTISSLQAEDVAVYYCQQSKEVPWTFGGGTKVEIK,29%
4,unnamed (protein) chain 1: QVQLQESGPGLVKPSQTLSLTCTVSGGSISSGDYYWSWIRQPPGKGLEWIGYIYYSGSTDYNPSLKSRVTMSVDTSKNQFSLKVNSVTAADTAVYYCARVSIFGVGTFDYWGQGTLVTVSS chain 2: EIVMTQSPATLSLSPGERATLSCRASQSVSSYLAWYQQKPGQAPRLLIYDASNRATGIPARFSGSGSGTDFTLTISSLEPEDFAVYYCHQYGSTPLTFGGGTKAEIK,4.1%
5,unnamed (protein) chain 1: QVQLVQSGGGLVQAGGSLRLSCAASGGTFATSPMGWLRQAPGKGTEFVAAISPSGGDRIYADSVKGRFTISRDNAGYFIYLQMNSLKPEDTAVYYCAVRRRFDGTSYYTGDYDSWGQGTLVTVSS chain 2: EIVLTQSPGTLSLSPGERATLSCRASQSVSSSYLAWYQQKPGQAPRLLIYDASSRATGIPDRFSGSGSGTDFTLTISRLEPEDFAVYYCQQYSYSPVTFGQGTKVEIK,0%
6,unnamed (protein) chain 1: QVQLVQSGAEVKKPGSSVMVSCQASGGLLEDYIINWVRQAPGQGPEWMGGIIPVLGTVHYGPKFQGRVTITADESTDTAYMELSSLRSEDTAMYYCATETALVVSETYLPHYFDNWGQGTLVTVSS chain 2: DIQMTQSPSSLSAAVGDRVTITCQASQDIVNYLNWYQQKPGKAPKLLIYVASNLETGVPSRFSGSGSGTDFSLTISSLQPEDVATYYCQQYDNLPLTFGGGTKVEIK,28%
7,unnamed (protein) chain 1: QVQLVESGGGVVQPGRSLRLDCKASGITFSNSGMHWVRQAPGKGLEWVAVIWYDGSKRYYADSVKGRFTISRDNSKNTLFLQMNSLRAEDTAVYYCATNDDYWGQGTLVTVSS chain 2: EIVLTQSPATLSLSPGERATLSCRASQSVSSYLAWYQQKPGQAPRLLIYDASNRATGIPARFSGSGSGTDFTLTISSLEPEDFAVYYCQQSSNWPRTFGQGTKVEIK,7.7%
8,unnamed (protein) chain 1: EVQLVESGGGLVKPGGSLKLSCAASGYTFTSYVMHWVRQAPGKGLEWIGYINPYNDGTKYNEKFQGRVTISSDKSISTAYMELSSLRSEDTAMYYCARGTYYYGTRVFDYWGQGTLVTVSS chain 2: DIVMTQSPATLSLSPGERATLSCRSSKSLQNVNGNTYLYWFQQKPGQSPQLLIYRMSNLNSGVPDRFSGSGSGTEFTLTISSLEPEDFAVYYCMQHLEYPITFGAGTKLEIK,17.5% and 1%
9,unnamed (protein) chain 1: QVQLQQSGPELKKPGASVKVSCKDSGYAFSSSWMNWVRQAPGQGLEWIGRIYPGDGDTNYNGKFQGRVTITADKSSSTAYMELSSLRSEDTAVYFCARSGLLRYAMDYWGQGTLVTVSS chain 2: DIQMTQSPSSLSASVGDRVTITCRASQDIRNYLNWYQQKPGKAVKLLIYYTSRLLPGVPSRFSGSGSGTDYSLTISSQEQEDIGTYFCQQGNTLPWTFGQGTKVEIR,2.5%
10,unnamed (protein) chain 1: QVQLVQSGAEVKKPGSSVKVSCKASGYAFSYSWINWVRQAPGQGLEWMGRIFPGDGDTDYNGKFKGRVTITADKSTSTAYMELSSLRSEDTAVYYCARNVFDGYWLVYWGQGTLVTVSS chain 2: DIVMTQTPLSLPVTPGEPASISCRSSKSLLHSNGITYLYWYLQKPGQSPQLLIYQMSNLVSGVPDRFSGSGSGTDFTLKISRVEAEDVGVYYCAQNLELPYTFGGGTKVEIK,6% and 6.6%
